Test results: patent US20180194862A1

Target: human CD40 on cells (HEK293 stable transfectants, HEK-Blue CD40 cells, human B cells, monocytic cells, dendritic cells) (human) (UniProt P25942)
Experiment: cell-based or functional assay

human CD40 on cells (HEK293 stable transfectants, HEK-Blue CD40 cells, human B cells, monocytic cells, dendritic cells) (human), sequence (P25942 21-277 limits assumed): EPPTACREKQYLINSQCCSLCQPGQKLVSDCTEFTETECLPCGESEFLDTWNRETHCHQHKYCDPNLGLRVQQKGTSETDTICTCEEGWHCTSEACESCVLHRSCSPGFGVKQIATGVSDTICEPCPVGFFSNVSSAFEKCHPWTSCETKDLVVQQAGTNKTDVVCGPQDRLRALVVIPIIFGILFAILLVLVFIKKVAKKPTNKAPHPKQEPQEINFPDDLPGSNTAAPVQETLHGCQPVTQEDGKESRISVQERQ

## anti-human CD40 G28-5 (mouse IgG1) (Biolegend) (antibody)
  Monocyte activation (THP1-Xblue, OD655): 0.12 OD655
  moDC activation (IL-12p70): 139 pg/mL
